How the values were obtained:
Experiment in all cases: fluorescence polarisation
[1] = target: Human BCL-2 removing the C-terminal 32 residues, C-terminal 6×His-tag (human) (UniProt P10415)
[2] = target: Human BCL-XL removing the C-terminal 22 residues, C-terminal 6×His-tag (human) (UniProt Q07817)
[3] = target: FITC-labelled HRK-BH3 peptide

Sequence of UniProt Q07817 (Q07817 1-211): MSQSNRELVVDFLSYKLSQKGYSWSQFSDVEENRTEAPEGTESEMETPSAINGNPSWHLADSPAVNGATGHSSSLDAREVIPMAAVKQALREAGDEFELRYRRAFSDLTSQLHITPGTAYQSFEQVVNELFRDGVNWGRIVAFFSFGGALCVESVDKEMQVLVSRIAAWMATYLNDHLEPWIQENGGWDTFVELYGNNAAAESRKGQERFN

Row | Ki [1] | Ki [2] | EC50 [3] | Substance
1 | 36 nM | 1.8 nM |  | wild-type HRK-BH3 peptide (HRK-WT)
2 |  |  | 30 nM | Human BCL-2 removing the C-terminal 32 residues, C-terminal 6×His-tag (from UniProt P10415 1-207) (domain or fragment)
